The nanobody polyreactivity screen of Harvey et al. (2022)

Assay: yeast display, Sf9 membrane polyspecificity reagent, FACS + sequencing; frameworks hold sequencing errors
How it was run: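 Sorting gates, low and high (top ~1%), were placed on anti-HA fluorescence to track expression and on streptavidin fluorescence to track reagent binding. A clone's polyreactivity label is taken from the gate it came out of. The reagent was 10% biotinylated, detergent-solubilized Sf9 membrane, applied for 1 hour at 4 °C to galactose-induced yeast display cells.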

QVQLVESGGGLVQAGGSLRLSCAASGSIFSPYAMGWYRQAPGKERELVAAISDRGGSTYYADSVKVRFTISRDNAKNTVYLQMNSLKPEDTAVYYCAARVGYAFRYYYWGQGTQVTVSS
polyreactivity (PSR sort gate): high polyreactivity

QVQLVESGGGLVQAGGSLRLSCAASGSIFSQNAMGWYRQAPGKERELVAAITSSGGNTYADSVKGRFTISRDNAKNTVYLQMNRLKPEDTAVYYCAAGHLVILNRSEYYYWGQGSQVTVSS
polyreactivity (PSR sort gate): low polyreactivity

QVQLVESGGGLVQAGGSLRLSCAASGSIFSQYAMGWSRQAPGKERELVAAISSSGDSTNYADSVKGRFTISRDNAKNTVYLQMNSLKPEDTAVYYCAADFDWFIWGYDYWGQGTQVTVSS
polyreactivity (PSR sort gate): low polyreactivity

QVQLVESGGGLVQAGGSLRLSCAASGSIFSQYAMGWYRQAPGTERDFVAAINWSGGRTRYADSVKGRFTISRDNAKNTVYLQMNSLKPEDTAVYYCAKVYSLYSYSGRYDYWGQGTQVTVSS
polyreactivity (PSR sort gate): high polyreactivity

QVQLVESGGGLVQAGGSLRLSCAASGSIFSRNAMGWYRQEPGKEREFVAAISYSSGSTYYADSVNGRFTISRDNAKNTVYLQMNSLKPEDTAVYYCAADTTKLQGVEGDYWGQGTQVTVSS
polyreactivity (PSR sort gate): low polyreactivity

QVQLVESGGGLVQAGGSLRLSCAASGSIFSRYAMGWYRQAPGKERELVAAISWRGVSTYYADSVKGRFTISRDNAKNTVYLQMNSLKPEDTAVYYCAADTGRYLDSNYWGQGTQVTVSS
polyreactivity (PSR sort gate): high polyreactivity

QVQLVESGGGLVQAGGSLRLSCAASGSIFSRYAMGWYRQAPGNERELVAAITSGGSTKYADSVKGRFTISRDNAKNTVYLQMNSLKPEDTAVYYCNADRRFRKYPFGYWGQGTQVTVSS
polyreactivity (PSR sort gate): high polyreactivity

QVQLVESGGGLVQAGGSLRLSCAASGSIFSRYTRGWYRQAPGKEWELVASISRRGGRTYYADSVKGRFTISRDNAKNTVYLQMNSPKPEDTAVYYCNARGHGSAVGPFTRVNSWGQGTQVTVSS
polyreactivity (PSR sort gate): high polyreactivity

QVQLVESGGGLVQAGGSLRLSCAASGSIFSSNAMGWYIQAPGKERELVASIDGGPTTYADSVKGRFTISRDNAKNTVYLQMNSLKPEDTAVYYCNADSLDGPKFDYWGQGTQVTVSS
polyreactivity (PSR sort gate): low polyreactivity

QVQLVESGGGLVQAGGSLRLSCAASGSIFSSNAMGWYRPAPGKERELVAAISSGGTTNYADSVKGRFTISRDNAKHTVYLQMNSLKPEDTAVYYCAKRGPSRPAEYDYWGQGTQVTVSS
polyreactivity (PSR sort gate): low polyreactivity

QVQLVESGGGLVQAGGSLRLSCAASGSIFSSNAMGWYRPAPGKERELVAAISWNGGRTYYADSVKGRFTISRDNAKNTVYLQMNSLKPEDTAVYYCATRFYRPRDGLYDYWGQGTQVTVSS
polyreactivity (PSR sort gate): high polyreactivity

QVQLVESGGGLVQAGGSLRLSCAASGSIFSSNAMGWYRQAPGKERELVAAISKSGSRTYYADSVKGRFTISRDNAKNTVYLQMNSLKPEDTAVYYCNAVGVSVYYAIAYDYWGQGTQVTVSS
polyreactivity (PSR sort gate): high polyreactivity

QVQLVESGGGLVQAGGSLRLSCAASGSIFSSNAMGWYRQAPGKERELVAAITRGGRTTYADSVKGRFTISRDNAKNTVYLQMNSLKPEDTAVYYCAALHGRYPNRYDYWGQGTQVTVSS
polyreactivity (PSR sort gate): low polyreactivity

QVQLVESGGGLVQAGGSLRLSCAASGSIFSSYAMGWYRQAPGKERELVAAISKSGVSTYYADSVKGRFTISRDNAKNTVYLQMNSLKPEDTAVYYCNAKGKYWHYDYWGQGTQVTVSS
polyreactivity (PSR sort gate): high polyreactivity

QVQLVESGGGLVQAGGSLRLSCAASGSIFSSYAMGWYRQAPGKERELVAAITSGGSTYYADSVKGRFTISRDNAKNTVYLLMNSLKPEDTAVYYCAARQVRTSILHMGYWGQGTQVTVSS
polyreactivity (PSR sort gate): low polyreactivity

QVQLVESGGGLVQAGGSLRLSCAASGSIFSSYAMGWYRQAPGKEREVVASINSAGSTNYADSVKGRFTISRDNAKNTVYLQMNSLKPDDTAVYYCAASGGTWVNYRPEYDYWGQGTQVTVSS
polyreactivity (PSR sort gate): low polyreactivity

QVQLVESGGGLVQAGGSLRLSCAASGSIFSSYVMGWYRQAPGKEREVVAAITSRGGSTYYADSVKGRFTISRDNAKNTVYLQMNSLKPEDTAVYYCAKGGTTWYWSGYRSIYFRYDYWGQGTQVTVSS
polyreactivity (PSR sort gate): high polyreactivity

QVQLVESGGGLVQAGGSLRLSCAASGSIFSTNAMGWYRQAPGKERELVAVITGIGGITYYADSVKGRFTISRDIAKNTVYLQMNSLIPEDTAVYYCAVGYWDSRYRYDLPNSDYWGQGTEVTVSS
polyreactivity (PSR sort gate): low polyreactivity

QVQLVESGGGLVQAGGSLRLSCAASGSIFSTYAMGWYRQAHGKERELVAAISRSGGSTYYADSVKGRFTISRDNAKNTVYLQMNSLKPEDTAVYYCAKVGRRQRYDYWGQGTQVTVSS
polyreactivity (PSR sort gate): high polyreactivity

QVQLVESGGGLVQAGGSLRLSCAASGSIFSTYAMGWYRQAPGKERELVASITSTGGSTYYADSVKGRFTISRDNAKNTVYLQMNSLKPEDTAVYYCAARYRRTHRYYYAYSTMDYWGQGTQVTVSS
polyreactivity (PSR sort gate): high polyreactivity

QVQLVESGGGLVQAGGSLRLSCAASGSIFSTYAMGWYRQAPGKERELVATIRRGGSTYYADSVKGRFTISRDNAKNTVYLQMNSLKPEDTAVYYCAATVSSYPYYRYYSWGQGTQVTVSS
polyreactivity (PSR sort gate): high polyreactivity

QVQLVESGGGLVQAGGSLRLSCAASGSIFSTYAMGWYRQAPGTERELVAAITWSGGSTYYADSVKGRFTISRDNAKNTVYFQMNSLKPEDTAVYYCATRGQGWGGKYGYWGQGTQVTVSS
polyreactivity (PSR sort gate): low polyreactivity

QVQLVESGGGLVQAGGSLRLSCAASGSIFSTYTMGWYRQAPGKERELVAAITRSGGSTYYADSVKGRFTISRDNAKNTVYLQMNSLKPEDTAVYYCAARWKFPSSFYYWGQGTQVTVSS
polyreactivity (PSR sort gate): high polyreactivity

QVQLVESGGGLVQAGGSLRLSCAASGSIFSWNAMGWYRQAPGKERELVAAITGGGSTYYADSVKGRFTISRDNAKNTFYLQMNSLKPEDTAVYYCNALWYWDKLEYWGQGTQVTVSS
polyreactivity (PSR sort gate): high polyreactivity

QVQLVESGGGLVQAGGSLRLSCAASGSIFSWYAMGSYTQAPGKESELVAAITRGGSTYADSVKGRFTISRDNAKNTVYLQMNSLKPEDTAVYYCNAVYGVYDFNYWGQGTQVTVSS
polyreactivity (PSR sort gate): low polyreactivity

QVQLVESGGGLVQAGGSLRLSCAASGSIFSWYAMGWYRQAPGKERELVAAITWTGGSTYYADSVKGRFTISRDNAKNTVYLQMNSLKPEDTAVYYCAARRVVYRYYWYSAYDYWGQGTQVTVSS
polyreactivity (PSR sort gate): high polyreactivity

QVQLVESGGGLVQAGGSLRLSCAASGSIFSYKAMGWYRQAPGKERELVAAISWSGGRTYYADSVKGRFTISRDNAKNTVYLQMNSLKPEDTAVYYCNAQYRLYSEFNYWGQGTQVTVSS
polyreactivity (PSR sort gate): high polyreactivity

QVQLVESGGGLVQAGGSLRLSCAASGSIFSYNAMGWNRQAPGKESELVAAISWSGGRTYYADSVKGRFTISRDNAKNTVYLQMNSLKPEDTAVYYCNAQYRLYSEFNYWGQGTQVTVSS
polyreactivity (PSR sort gate): high polyreactivity

QVQLVESGGGLVQAGGSLRLSCAASGSIFSYNAMGWYRQAPGKERELVAVITRGGSTYYADSVKGRFTISRDNAKNTVYLQMNSLKPEDTAVYYCAAGAHRRGYDYWGQGTQVTVSS
polyreactivity (PSR sort gate): high polyreactivity

QVQLVESGGGLVQAGGSLRLSCAASGSIFSYNGMGWYRQAPGKEREFVAAITWRGGSTYYADSVKGRFTISRDNAMNTVYLQMNSLKPEDTAVYYCARRPGYALTWRVSGRYDYWGQGTQVTVSS
polyreactivity (PSR sort gate): high polyreactivity

QVQLVESGGGLVQAGGSLRLSCAASGSIFSYNMGWYRQAPGKEREFVAAISSGGSTYYADSVKGRFTISRDNAKNTVYLQMNSLKPEDTAVYYCNRVRRGVWRQDDYWGQGTQVTVSS
polyreactivity (PSR sort gate): high polyreactivity

QVQLVESGGGLVQAGGSLRLSCAASGSIFSYNTMGWYRQAPGKERELVASISSSGGTTYYADSVKGRFTISRDNAKNTVYLQMNSLKPEDTAVYYCAAKLRSYYSGPRYYYWGQGTQVTVSS
polyreactivity (PSR sort gate): high polyreactivity

QVQLVESGGGLVQAGGSLRLSCAASGSIFSYYAMAWYRHAPGKEREMVAAITSGGATTYYADSVKGRFTISRDNAKNTVYLQMNSLKQEDTAVYFCAAGYYVYFRWWELDYWGQGTQVTVSS
polyreactivity (PSR sort gate): low polyreactivity

QVQLVESGGGLVQAGGSLRLSCAASGSIFSYYAMAWYRQAPGKERELVAAITWSGTRTYYADSVKGRFTISRDNAKNTVYLQMNSLKPEDTAVYYCAADSSIRDDYWGQGTQVTVSS
polyreactivity (PSR sort gate): low polyreactivity

QVQLVESGGGLVQAGGSLRLSCAASGSIFSYYAMGWYRQAPGKERELFADINLDDGRTYYADSVKGRFTISRDNAKNTVYLQMNSLKPEDTAVYYCAADEFYSFRYLFGPTFDYWGQGTQVTVSS
polyreactivity (PSR sort gate): high polyreactivity

QVQLVESGGGLVQAGGSLRLSCAASGSIFSYYAMGWYRQAPGKERELVAAISGSGGSTYYADSVKGRFTISRDNAKNTVYLQMNSLKPDDNAVYSCAARYYAWGRRRTWDDYWGQGTQVTVSS
polyreactivity (PSR sort gate): high polyreactivity

QVQLVESGGGLVQAGGSLRLSCAASGSIFSYYAMGWYRQAPGKERELVAAISKRGASTYYADSVKGRFTISRDIAKNTVYLQMNSLKPEDTAVYYCAGYRQGSAYDYWGQGTQVTVSS
polyreactivity (PSR sort gate): high polyreactivity

QVQLVESGGGLVQAGGSLRLSCAASGSIFSYYAMGWYRQAPGKERELVAAISWGDDSTYYADSVKGRFTISRDNAKNTVYLQMNSLKPEDTAVYYCAADRVGWYRTFDYWGQGTQVTVSS
polyreactivity (PSR sort gate): low polyreactivity

QVQLVESGGGLVQAGGSLRLSCAASGSIFSYYAMGWYRQAPGKERELVAAISWNGGRTYYADSVKGRFTISRDNAMNTVFLQMNSLKPEDTAVYYCNAVKVYSYGLYGYWGQGTQVTVSS
polyreactivity (PSR sort gate): high polyreactivity

QVQLVESGGGLVQAGGSLRLSCAASGSIFSYYAMGWYRQAPGKERELVAAITGGGTTNYADSVKGRFTISRDNAKNTDYLQMNSLKPEDTAVYYCAADEPDVFAPGLYYWGQGTQVTLSS
polyreactivity (PSR sort gate): low polyreactivity

QVQLVESGGGLVQAGGSLRLSCAASGSIFSYYTMGWYRPAPGKERELVAAISYSGGRTYYADSVKGRFTISRDNAKNTVYLQMNSLKTEDTAVYYCSAKLLQLRGRGYEYWGQGTQVTVSS
polyreactivity (PSR sort gate): high polyreactivity

QVQLVESGGGLVQAGGSLRLSCAASGSIFSYYTMGWYRQAPGTERELVAASTRGGRTSYADSVKGRFTISRDNAKNTVYLQMNSLKPEDTAVYYCAADYWYFTHQLSTYGDNYWGQGTQVTVSS
polyreactivity (PSR sort gate): low polyreactivity

QVQLVESGGGLVQAGGSLRLSCAASGSIFSYYVMGWYRQAPGKERELVAAISWSGGSTYYADSVKGRFTISRDNSKNTVYLQMNSLKPEDTAVYYCAAGTYPYYWGQGTQVTVSS
polyreactivity (PSR sort gate): low polyreactivity
